Test results taken from patent US20160251436A1 (PD 1 ACQUISITION GROUP, published 2016).

Key:
[1] = target: T1, human Programmed Death-1 (PD-1) expressed on the cell surface (human, UniProt Q15116 25-288); experiment: cell-based or functional assay
[2] = target: T1, human Programmed Death-1 (PD-1) …; experiment: cell-based or functional assay; remark: listed apart in the source
[3] = target: T1, human Programmed Death-1 (PD-1) …; experiment: cell-based or functional assay; remark: listed apart in the source
[4] = target: human Programmed Death-1 (PD-1) expressed on the cell surface (human) (UniProt Q15116); experiment: flow cytometry blocking assay: HEK293 cells expressing PD-1 incubated with 10 µg/ml antibody, washed, stained with PD-L1-Ig Alexa-488 as the blocked ligand
Sequence of human Programmed Death-1 (PD-1) expressed on the cell surface (human) (Q15116 25-288): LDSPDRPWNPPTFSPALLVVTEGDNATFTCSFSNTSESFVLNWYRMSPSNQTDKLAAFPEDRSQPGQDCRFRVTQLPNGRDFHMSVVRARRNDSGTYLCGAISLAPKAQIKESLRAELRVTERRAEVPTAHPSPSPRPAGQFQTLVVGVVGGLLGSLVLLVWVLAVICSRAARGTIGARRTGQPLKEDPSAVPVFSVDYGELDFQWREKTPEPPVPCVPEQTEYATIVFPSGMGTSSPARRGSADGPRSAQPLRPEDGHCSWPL

[5] = target: recombinant soluble extracellular domain (ECD) of PD-1 (R&D Systems) (UniProt Q15116); experiment: ELISA, PD-1 ECD coated on the plate, antibody titrated from about 0.003 to about 13 nM, OD 450 nm
Sequence of recombinant soluble extracellular domain (ECD) of PD-1 (R&D Systems) (Q15116 25-170): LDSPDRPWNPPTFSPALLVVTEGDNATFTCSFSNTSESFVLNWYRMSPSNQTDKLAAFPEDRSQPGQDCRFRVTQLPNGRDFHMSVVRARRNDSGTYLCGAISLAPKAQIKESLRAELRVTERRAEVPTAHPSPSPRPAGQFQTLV

[6] = target: human Programmed Death-1 (PD-1) expressed on the cell surface (human) (UniProt Q15116); experiment: cell-based or functional assay

T1 sequence (Q15116 25-288): as the sequence (Q15116 25-288) above

Row | EC50 (read off the curve) [5] | Binder | Fold Induction IFN-γ (relative to isotype control; NSCLC biopsy cells, 20 µg/mL) [1] | Fold Induction IFN-γ (normalized to nivolumab; 20 µg/mL total antibody) [2] | Fold Induction IFN-γ (relative to anti-CD3 + anti-CD28 only; antibody at 5 ug/mL) [3] | Fold Induction IFN-γ (relative to anti-CD3 + anti-CD28 only; antibody at 10 ug/mL) [3] | percent of cells in gate Alexa Fluor 488-A+ (PD-L1-Ig staining after the antibody) [4] | percent of cells in gate Alexa Fluor 488-A- (PD-L1-Ig staining after the antibody) [4] | CD4 IFNγ % positive [6] | CD8 IFNγ % positive [6] | CD8 TNFα % positive [6]
1 |  | 244C8-2 (100244_C8_HC1 + 100245_C8_LC3) (antibody, V domains shown) VH: QVQLVQSGAEVKKPGASVKVSCKASGYTFTSYWMHWVRQAPGQGLEWMGMIDPSNSETSLNQKFQGRVTMTVDKSTNTVYMELSSLRSEDTAVYYCARSRGNYAYEMDYWGQGTLVTVSS VL: DIVLTQSPGTLSLSPGEKVTLSCRASSSVSSNYLYWYQQKPGQAPRLVIYSTSNLATGIPDRFSGSGSGTDYTLTISRLEPEDFAVYFCHQWSSYPPTFGQGTKVEIK | 7.76 fold | 1.77 fold | 2.66 fold | 2.81 fold |  |  |  |  | 
2 | 0.02 nM | mouse anti-PD-1 cl. EH12.2H7 (antibody, from another filing, V domains shown) VH: QVQLQQSGAELAKPGASVQMSCKASGYSFTSSWIHWVKQRPGQGLEWIGYIYPSTGFTEYNQKFKDKATLTADKSSSTAYMQLSSLTSEDSAVYYCARWRDSSGYHAMDYWGQGTSVTVSS VL: DIVLTQSPASLTVSLGQRATISCRASQSVSTSGYSYMHWYQQKPGQPPKLLIKFGSNLESGIPARFSGSGSGTDFTLNIHPVEEEDTATYYCQHSWEIPYTFGGGTKLEIK |  |  |  |  | 10.3% | 89.7% | 12.8 % positive | 19.5 % positive | 14.1 % positive
